# In US20260248969A1, “PEPTIDE MULTIMER PRODUCTS AND METHODS” (REGENTS OF THE UNIVERSITY OF MICHIGAN, priority 2023, published 2026):
# “Also recorded” adds a separate entry of the source. No end group written: not given here.
# Legend:
# human CCA-156 HCC cells = assay: Binding of Cy5.5-labeled peptides to CCA-156 HCC cells, confocal fluorescence; format: cell-based; conditions: 5 μM, 5 min on ice
# Procedure: HCC patient-derived cells (CCA-156) were generated from fresh, de novo tumor specimens obtained from patients undergoing liver transplant.
# Fresh tissue was cut into ~1 mm^2 pieces in ice-cold DPBS. and 3-4 pieces were placed in one well of a 12-well plate. Minced tissue was cultured using Matrigel with growth media containing 10 μM ROCK inhibitor Y27632 (ATCC) and 5 μM TGF-β inhibitor (A83-01, Sigma-Aldrich) diluted to 8 mg/mL. An HCC cell line and a corresponding organoid were successfully generated. The cell line was denoted CCA-156 to reflect the specimen ID.
# Approximately 10^3 CCA-156 cells were grown on the cover glass in a 24-well plate to ~90% confluence. The cells were washed with PBS twice and incubated with 5 μM of either Cy5.5-labeled peptide multimer or peptide monomer for 5 min on ice. The cells were then washed with PBS for 3X, fixed with 4% paraformaldehyde (PFA) in PBS for 15 min, washed with PBS for twice, then mounted on glass slides with ProLong Gold reagent containing DAPI (Invitrogen).
# [1] = tested on: orthotopic HCC PDX tumors; assay: In vivo competition for binding (blocking before Gd-DOTA-labeled peptide multimer), MR imaging; design: species or system mouse; conditions: unlabeled blocker given prior to labeled multimer; 0.5 hour post-injection
# Procedure: In vivo competition for binding to GPC3, CD44, and EpCAM was evaluated by administering unlabeled peptide monomers prior to Gd-DOTA labeled peptide multimer. Single unlabeled peptide monomers (ALL*, WKG*, and HPD*) at a concentration of 1.5 mM in 100 μL of PBS, or a mixture of all three peptide monomers (multi-block) at a concentration of 1 mM in 100 μL of PBS each were administered 30 minutes prior to the Gd-DOTA-labeled peptide multimer, FIG. 14A. T1-weighted MR images were collected at the peak uptake time of 0.5 hour after the peptide multimer injection. The T/B ratio of MR intensity was calculated using regions of interest, and the adjacent non-tumor region with equal area of the tumor region was defined as the background.
# human liver specimens = assay: Multimer staining of human liver specimens ex vivo (tissue microarray), fluorescence intensity and ROC
# Procedure: (§1) Binding of Cy5.5-labeled peptide multimer was evaluated using human HCC specimens ex vivo. All experiments using human tissues were approved by the Michigan Medicine IRB (HUM00122873). A tissue microarray (TMA) was generated from n=120 liver specimens provided by the archived tissue bank in the Department of Pathology. Paraffin-embedded (FFPE) section slide was deparaffinized and conducted through antigen retrieval. Blocking procedure was performed with 5% goat serum for 1 hour at room temperature. The slide was first stained with the Cy5.5 labeled peptide multimer at 5 μM for 5 min at room temperature. The section was then incubated with primary antibodies using 1:200 dilution of primary recombinant rabbit anti-GPC3 antibody (#ab95363, Abcam), 1:500 dilution of primary recombinant mouse anti-CD44 antibody (#3570, Cell Signaling Technology), and AF594-labeled primary anti-EpCAM (#7319, Cell Signaling Technology) overnight at 4° C. After washing with 2% BSA in PBST, section was incubated with 1:500 dilution of AF488-labeled secondary goat anti-mouse IgG antibody (#ab150113, Abcam) and 1:500 dilution of AF532-labeled secondary goat anti-rabbit IgG antibody (#A-11029, Life Technologies) for 1 hour at room temperature, and mounted with Prolong Gold reagent containing DAPI at last (Invitrogen). The fluorescence images were collected using Leica Stellaris 5 (inverted), excitation at Aex=670 nm for the peptide multimer, and λex=488, 532, 594 nm for CD44, GPC3 and EpCAM antibody, respectively. Fluorescence intensities were quantified using Leica LAS AF Lite software. All slides were evaluated by an expert liver pathologist.
# GPC3 [2] = biological target: T1, GPC3 (Homo sapiens, UniProt P51654); assay: Co-localization of multimer and anti-GPC3-AF532 on human liver tissue microarray; format: binding
# T1 construct: from tissue; host or cells: human HCC patient-derived xenograft tumor grown orthotopically in NSG mouse liver
# Procedure: as §1
# GPC3 [3] = biological target: T1, GPC3; assay: Co-localization of labeled multimer and anti-GPC3 antibody binding to HCC patient-derived organoids (PDOs); conditions: merged images
# Procedure: (§2) PDOs were established from human HCC specimens. These immortalized human tissues provided clinically relevant target expression levels and genetic heterogeneity seen in the HCC patient population. Short tandem repeat analysis was performed to authenticate human genomic expression and characterize genetic variations. Images collected using the candidate IRDye800-labeled multimer, AF488-labeled monoclonal antibodies specific for GPC3, CD44, and EpCAM, and merged are shown, FIG. 2A-C. Strong fluorescence intensity can be seen at the cell surface (arrows). Multimer and antibody co-localization was measured using correlation analysis.
# (§3) For a co-localization assay, patient-derived organoids were recovered from Matrigel and fixed by 4% PFA for 30 min. Permeabilization and blocking were performed using 5% serum (v/v) and 1% Triton X-100 (v/v) in PBS for 3 hours at room temperature. Organoids were then incubated with 1:200 dilution of primary recombinant rabbit anti-GPC3 antibody (#ab95363, Abcam), 1:500 dilution of primary recombinant mouse anti-CD44 antibody (#3570, Cell Signaling Technology), and AF594-labeled primary anti-EpCAM (#7319, Cell Signaling Technology) at 4° C. overnight. […] Confocal fluorescence images were obtained on Leica Stellaris 5 (inverted) confocal microscope using a 63X oil-immersion objective. Fluorescence intensities were quantified using Leica LAS AF Lite software.
# EpCAM [4] = biological target: T2, EpCAM (Homo sapiens, UniProt P16422); assay: Co-localization of multimer and anti-EpCAM-AF594 on human liver tissue microarray; format: binding
# T2 construct: from tissue; host or cells: human HCC patient-derived xenograft tumor grown orthotopically in NSG mouse liver
# T2 sequence (P16422 24-314): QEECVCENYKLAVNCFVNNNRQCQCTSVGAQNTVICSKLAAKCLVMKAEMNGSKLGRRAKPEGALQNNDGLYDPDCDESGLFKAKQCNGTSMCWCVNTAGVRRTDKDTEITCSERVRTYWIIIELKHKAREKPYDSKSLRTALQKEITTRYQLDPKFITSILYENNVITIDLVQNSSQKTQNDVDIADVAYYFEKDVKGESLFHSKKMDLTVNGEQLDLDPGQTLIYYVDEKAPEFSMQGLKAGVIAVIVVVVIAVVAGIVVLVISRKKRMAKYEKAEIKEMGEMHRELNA
# Procedure: as §1
# CD44 [5] = biological target: T3, CD44 (Homo sapiens, UniProt P16070); assay: Co-localization of multimer and anti-CD44-AF488 on human liver tissue microarray; format: binding
# T3 construct: from tissue; host or cells: human HCC patient-derived xenograft tumor grown orthotopically in NSG mouse liver
# Procedure: as §1
# GPC3 [6] = biological target: T1, GPC3; assay: Co-localization of labeled multimer and anti-GPC3 antibody on resected human HCC PDX tumor specimen; format: binding; conditions: merged image
# Text: (§4) After completion of in vivo imaging, specific multimer binding to the PDX HCC tumor was validated ex vivo using confocal microscopy. These studies confirmed the in vivo imaging results and expression of the expected targets ex vivo. Increased fluorescence intensity is seen at the cell surface (arrow) for the IRDye800-labeled multimer binding to HCC tumor, FIG. 8A. Adjacent sections were stained with antibodies specific for GPC3, CD44, and EpCAM, FIG. 8B-D. Co-localization of multimer and antibody binding is shown on the merged image, FIG. 8E. A correlation of ρ=0.69, 0.65, and 0.70 was measured to characterize binding co-localization by the multimer with the GPC3, CD44, and EpCAM antibodies, respectively.
# (§5) Orthotopic HCC PDX tumors were resected and sectioned for immunofluorescence.
# CD44 [7] = assay: Co-localization of labeled multimer and anti-CD44 antibody binding to HCC patient-derived organoids (PDOs); design: species or system human; conditions: merged images
# Procedure: as §2, §3
# EpCAM [8] = biological target: T2, EpCAM; assay: Co-localization of labeled multimer and anti-EpCAM antibody binding to HCC patient-derived organoids (PDOs); conditions: merged images
# Procedure: as §2, §3
# EpCAM [9] = biological target: T2, EpCAM; assay: Co-localization of labeled multimer and anti-EpCAM antibody on resected human HCC PDX tumor specimen; format: binding; conditions: merged image
# Text: as §4, §5
# CD44 [10] = biological target: T3, CD44; assay: Co-localization of labeled multimer and anti-CD44 antibody on resected human HCC PDX tumor specimen; format: binding; conditions: merged image
# Text: as §4, §5
# T1 sequence (P51654 25-554): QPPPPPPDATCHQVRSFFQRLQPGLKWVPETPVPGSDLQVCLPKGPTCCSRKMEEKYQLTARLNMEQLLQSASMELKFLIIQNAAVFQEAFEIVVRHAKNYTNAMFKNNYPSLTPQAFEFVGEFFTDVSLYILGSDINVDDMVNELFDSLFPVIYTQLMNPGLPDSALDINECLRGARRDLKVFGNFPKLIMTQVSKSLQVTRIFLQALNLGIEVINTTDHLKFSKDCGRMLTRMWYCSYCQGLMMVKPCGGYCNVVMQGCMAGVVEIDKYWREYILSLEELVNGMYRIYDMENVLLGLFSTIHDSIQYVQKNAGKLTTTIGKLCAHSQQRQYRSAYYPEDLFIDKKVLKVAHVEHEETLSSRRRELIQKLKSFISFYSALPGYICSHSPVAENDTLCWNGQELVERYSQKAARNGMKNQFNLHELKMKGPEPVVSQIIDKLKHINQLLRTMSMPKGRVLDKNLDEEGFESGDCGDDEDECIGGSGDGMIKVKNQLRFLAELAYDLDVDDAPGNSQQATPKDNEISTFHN
# T3 sequence (P16070 21-742): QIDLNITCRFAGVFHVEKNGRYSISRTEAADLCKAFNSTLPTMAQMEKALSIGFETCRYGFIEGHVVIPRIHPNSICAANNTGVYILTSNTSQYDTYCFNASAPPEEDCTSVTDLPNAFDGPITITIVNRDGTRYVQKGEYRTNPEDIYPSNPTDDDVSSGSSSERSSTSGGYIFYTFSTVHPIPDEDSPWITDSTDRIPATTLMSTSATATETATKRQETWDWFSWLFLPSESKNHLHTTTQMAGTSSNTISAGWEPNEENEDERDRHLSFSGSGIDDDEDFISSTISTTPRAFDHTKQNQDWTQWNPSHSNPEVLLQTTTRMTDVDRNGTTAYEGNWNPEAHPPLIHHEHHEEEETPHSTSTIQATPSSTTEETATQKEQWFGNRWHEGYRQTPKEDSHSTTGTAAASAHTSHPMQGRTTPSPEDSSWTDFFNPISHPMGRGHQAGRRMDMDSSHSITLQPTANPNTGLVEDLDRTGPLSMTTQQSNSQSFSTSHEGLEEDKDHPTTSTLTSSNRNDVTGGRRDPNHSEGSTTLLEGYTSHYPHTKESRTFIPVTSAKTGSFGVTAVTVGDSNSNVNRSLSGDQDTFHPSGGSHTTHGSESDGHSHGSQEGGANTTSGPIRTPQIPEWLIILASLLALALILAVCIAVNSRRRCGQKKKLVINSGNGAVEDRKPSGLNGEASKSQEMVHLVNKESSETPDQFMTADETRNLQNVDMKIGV
# T3 sequence (P16070 21-222 limits assumed): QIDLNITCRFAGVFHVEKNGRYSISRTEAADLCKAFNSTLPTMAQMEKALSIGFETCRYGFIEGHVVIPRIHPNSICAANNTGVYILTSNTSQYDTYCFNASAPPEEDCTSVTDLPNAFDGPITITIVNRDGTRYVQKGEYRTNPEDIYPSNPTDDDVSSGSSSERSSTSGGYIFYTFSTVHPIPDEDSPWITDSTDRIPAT
substance,measurement,setting,value
"ALL*-Cy5.5: Cy5.5-labeled GPC3-specific peptide monomer ALLANHEELFQT (SEQ ID NO: 1) (also: Cy5.5 label, site not given here)",binding to cell surface of CCA-156 cells (fluorescence),human CCA-156 HCC cells,minimal signal
ALLANHEELFQT (GPC3-specific peptide) [ALL*],T/B ratio of Gd-DOTA-labeled peptide multimer after blocking,[1],reduced
"Cy5.5-labeled peptide multimer: peptide multimer of GPC3-, CD44- and EpCAM-specific peptides labeled with Cy5.5 (peptide 1 ALLANHEELFQT; peptide 2 WKGWSYLWTQQA; peptide 3 HPDMFTRTHSHN; not fully specified; also: peptide multimer, linkage not given here, Cy5.5 label, site not given here)",binding to cell surface of CCA-156 cells (fluorescence),human CCA-156 HCC cells,Strong fluorescence signal; also recorded: strong binding
same,"quantified fluorescence intensity, mean±SD",human liver specimens; HCC,8.4±1.0
same,"quantified fluorescence intensity, mean±SD",human liver specimens; adenoma,5.8±0.4
same,"quantified fluorescence intensity, mean±SD",human liver specimens; cirrhosis,6.4+0.7
same,"fluorescence intensity for HCC versus cirrhosis, adenoma, and normal",human liver specimens; n=120 specimens,significantly greater
same,"quantified fluorescence intensity, mean±SD",human liver specimens; normal,6.4±0.4
same,"Pearson's correlation coefficient, multimer and GPC3 antibody",GPC3 [2]; HCC,0.76
same,"Pearson's correlation coefficient, multimer and GPC3 antibody",GPC3 [2]; adenoma,0.82
same,"Pearson's correlation coefficient, multimer and GPC3 antibody",GPC3 [2]; cirrhosis,0.69
same,"Pearson's correlation coefficient, multimer and GPC3 antibody",GPC3 [2]; normal liver,0.74
same,"correlation of co-localization, multimer and GPC3 antibody",GPC3 [3],0.74
same,"Pearson's correlation coefficient, multimer and EpCAM antibody",EpCAM [4]; HCC,0.81
same,"Pearson's correlation coefficient, multimer and EpCAM antibody",EpCAM [4]; adenoma,0.83
same,"Pearson's correlation coefficient, multimer and EpCAM antibody",EpCAM [4]; cirrhosis,0.66
same,"Pearson's correlation coefficient, multimer and EpCAM antibody",EpCAM [4]; normal liver,0.83
same,"Pearson's correlation coefficient, multimer and CD44 antibody",CD44 [5]; HCC,0.70
same,"Pearson's correlation coefficient, multimer and CD44 antibody",CD44 [5]; adenoma,0.74
same,"Pearson's correlation coefficient, multimer and CD44 antibody",CD44 [5]; cirrhosis,0.60
same,"Pearson's correlation coefficient, multimer and CD44 antibody",CD44 [5]; normal liver,0.69
same,"Pearson's correlation coefficient, multimer with GPC3 antibody",GPC3 [6],0.69
same,"correlation of co-localization, multimer and CD44 antibody",CD44 [7],0.80
same,"correlation of co-localization, multimer and EpCAM antibody",EpCAM [8],0.75
same,"Pearson's correlation coefficient, multimer with EpCAM antibody",EpCAM [9],0.70
same,"Pearson's correlation coefficient, multimer with CD44 antibody",CD44 [10],0.65
"HPD*-Cy5.5: Cy5.5-labeled EpCAM-specific peptide monomer HPDMFTRTHSHN (SEQ ID NO: 7) (also: Cy5.5 label, site not given here)",binding to cell surface of CCA-156 cells (fluorescence),human CCA-156 HCC cells,minimal signal
HPDMFTRTHSHN (EpCAM-specific peptide) [HPD*],T/B ratio of Gd-DOTA-labeled peptide multimer after blocking,[1],reduced
"IRDye800-labeled multimer: GPC3-, CD44- and EpCAM-specific peptide monomers arranged via tri-lysine linker and PEG3 linkers, labeled with IRDye800 (peptide 1 ALLANHEELFQT; peptide 2 WKGWSYLWTQQA; peptide 3 HPDMFTRTHSHN; not fully specified; also: monomers arranged via tri-lysine linker and PEG3 linkers, IRDye800 label, site not given here)","correlation of co-localization, multimer and GPC3 antibody",GPC3 [3],0.74
same,"Pearson's correlation coefficient, multimer with GPC3 antibody",GPC3 [6],0.69
same,"correlation of co-localization, multimer and CD44 antibody",CD44 [7],0.80
same,"correlation of co-localization, multimer and EpCAM antibody",EpCAM [8],0.75
same,"Pearson's correlation coefficient, multimer with EpCAM antibody",EpCAM [9],0.70
same,"Pearson's correlation coefficient, multimer with CD44 antibody",CD44 [10],0.65
"WKG*-Cy5.5: Cy5.5-labeled CD44-specific peptide monomer WKGWSYLWTQQA (SEQ ID NO: 6) (also: Cy5.5 label, site not given here)",binding to cell surface of CCA-156 cells (fluorescence),human CCA-156 HCC cells,minimal signal
WKGWSYLWTQQA (CD44-specific peptide) [WKG*],T/B ratio of Gd-DOTA-labeled peptide multimer after blocking,[1],reduced
